Data on two molecules can be found in PMC3897220, “A comparative study of Whi5 and retinoblastoma proteins: from sequence and structure analysis to intracellular networks” (Frontiers in Physiology, 2013).

Experiment [1] deals with Whi5 (Whi5Sc) motif 3, 245-267 (UniProt Q12416). As to the kind of experiment: SPR, biotinylated motif 3 on streptavidin chip. As to conditions: reference: unphosphorylated motif 1 peptide; sites T143,S154,S156,S161. On the technique in general: SPR reads the build-up and loss of mass on a sensor chip optically.
The target in experiment [2] is T1, Whi5^Sc motif 3 peptide (residues 245-267), biotinylated (S. cerevisiae, UniProt Q12416 245-267, biotin (position not given)).
T1 construct: Whi5 of Saccharomyces cerevisiae, motif 3, residues 245-267 (Whi5^Sc numbering); Held on a streptavidin chip by its biotin; source: synthetic peptide (Primm, Milano, Italy)
T1 peptide (looked up): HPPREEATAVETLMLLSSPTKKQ
As to the kind of experiment: SPR; BIAcore X; biotinylated motif 3 immobilised on streptavidin Sensor Chip SA (~1000 resonance units), reference cell saturated with biotin; analytes motif 1 and phospho-motif 1 at 20 to 340 uM; HBS-EP buffer, flow 5 ul/min. Conditions: both partners purified.

Turning to “Whi5 (Whi5Sc) motif 1, 136-162 (from UniProt Q12416) phospho-motif 1 peptide (pT143, pS154, pS156, pS161)”, in experiment [1], the “binding against the reference” value is given as “weaker”.

B1: Whi5^Sc motif 1 peptide (residues 136-162) (peptide, UniProt Q12416 136-162, looked up)
peptide: MPLLPPTTPKSRRSEVFLSPSPRLRSP
notes: Whi5 of Saccharomyces cerevisiae, motif 1, residues 136-162 (Whi5^Sc numbering); source: synthetic peptide (Primm, Milano, Italy)
For the molecule B1, the binding result in experiment [2] is recorded as “binds”.
